Measured values taken from patent publication US20110217318A1 (MOCHIDA PHARMACEUTICAL, published 2011).
Where a chain is given by its changes, count along the chain named.

B1: F1249-18-2 (antibody, V domains shown)
VH: QVQLQQPGAELVKPGASVKLSCKASGYTFTSYWMHWLKQRPGQGLEWIGMIHPNSDITNYNEKFKNKATLTVDKSSSTAYMQLSSLTSEDSAVYYCARSGDYYAMDYWGQGTSVTVSS
VL: SIVMTQTPKFLLVSAGDRVTITCKASQSVSNDVAWYQQKPGQSPKLLIYYASNRYTGVPDRFTGSGYGTDFTFTISTVQAEDLAVYFCQQDYSSPPTFGGGTKLEIKR
notes: mouse hybridoma monoclonal antibody
B2: F1249-5-1 (antibody, V domains shown)
VH: B1 VH with D73A, S99L
VL: B1 VL with A34T
notes: as for B1
B3: F1245-7-1 (antibody, V domains shown)
VH: QVQLQQPGAELVKPGASVKLSCKASGYTFTSYWMHWVKQRPGQGLEWIGMIHPNSGSTNYNEKFKSKATLTVDKSSSTAYMQLSSLTSEDSAVYYCASPVTAVVEYYFDYWGQGTTLTVSS
VL: SIVMTQTPKFLLVSAGDRVTITCKASQSVSNDVAWYQQKPGQSPKLLIYYASNRYTGVPDRFTGSGYGTDFTFTISTVQAEDLAVYFCQQDYSSLTFGSGTKLEIKR
notes: as for B1
B4: F1246-1-1 (antibody, V domains shown)
VH: EVQLVESGGDLVKPGGSLKLSCAASGFTFSSYGMSWVRQTPDKRLEWVATISNGGTYTYYPDSVKGRFTISRDNAKNTLYLQMSSLKSDDTAMYYCGRLRDYYAMDYWGQGTSVTVSS
VL: DIVLTQSPASLAVSLGQRATISCRASESVDSYGNSFMHWYQQKPGQPPKLLIYRASNLESGIPARFSGSGSRTDFTLTINPVEADDVATYYCQQSNEDPWTFGGGTKLEIKR
notes: as for B1
B5: F1249-20-1 (antibody, V domains shown)
VH: QVQLQQSGAELVRPGVSVKISCKGSGYTFTDYAMHWVKQSHAKSLEWIGVISTYYGDTSYNQKFKGKATMTVDKSSSTAYMELARLTSEDSAIYYCARAEDYDPWFAYWGQGTLVTVSA
VL: B4 VL with H38Y, N96D, W100L, G104A, I110L
notes: as for B1
B6: F1249-24-1 (antibody, V domains shown)
VH: B5 VH
VL: B4 VL with N96D, W100L, G104A, I110L
notes: as for B1
B7: F1249-30-1 (antibody, V domains shown)
VH: B5 VH with T69A, E89D
VL: B4 VL with N96D, W100L, G104A, I110L
notes: as for B1
B8: F1245-5-1 (antibody, V domains shown)
VH: QVQLQQPGAELVKPGASVKLSCKASGYTFISYWMHWVKQRPGQGLEWIGMIHPNSGSTHYNEKFKSKATLTVDKSSSTAYMQLSSLTSEDSAVYYCARGGVTPVAYWGQGTLVTVSA
VL: B1 VL with P96W
notes: as for B1
B9: F1245-6-2 (antibody, V domains shown)
VH: B8 VH with I30T, H59N
VL: B1 VL with D60Y, P96W
notes: as for B1
B10: F1249-3-2 (antibody, V domains shown)
VH: EVQLVESGGGLVKPGGSLKLSCAASGFTFSSYGMSWVRQTPDKRLEWVATISSGGSYTYYSDSVKGRFTISRDNAKNNLYLQLSSLKSQDTAIYYCARDSGYFDYWGQGTTLTVSS
VL: B4 VL with D1N, R54L, I62V, N80D, V87A, S95N, W100R
notes: as for B1
B11: F1245-4-1 (antibody, V domains shown)
VH: QVQLQQPGAELVKPGASVKLSCKASGCTFTSYWMHWVKQRPGQGLEWIGMIHPNSDNTNYNEKFKSKATLTVDKSSSTAYMHLSSLTSEDSAVYYCATHYYDYVDYWGQGTTLTVSS
VL: B1 VL with S1N, P96W
notes: as for B1
B12: F1249-22-1 (antibody, V domains shown)
VH: QVQLQQPGAELVKPGASVKLSCKASGYTFTSYWMQWVKERPGQGLEWIGEIDPSDSYTNYNQKFKGKATLTVDTSSSTACMQLSSLTSEDSAVYYCARGAITTATLDYWGQGTTLTVSS
VL: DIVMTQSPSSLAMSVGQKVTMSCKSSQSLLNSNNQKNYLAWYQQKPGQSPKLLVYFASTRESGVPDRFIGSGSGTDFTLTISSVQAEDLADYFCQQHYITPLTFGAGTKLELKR
notes: as for B1
B13: F1251-1-1 (antibody, V domains shown)
VH: QVNLLQSGAALVKPGASVKLSCKASGYTFTDYYIHWVKQSHGKSLEWIGYINPNSGYTNYNEKFKSKATLTVDKSTNTAYMELSRLTSEDSATYYCTRCNSGYGDWFAYWGQGTLLTVSS
VL: DIQMTQSPPVLSASVGDRVTLSCKASQNINKNLDWYQQKHGEAPKLLIYYTNNLQTDIPSRFSGSGSGTDYTLTISSLQPEDVATFYCYQYNSGPGTFGAGTKLELKR
notes: rat hybridoma monoclonal antibody
B14: F1257-3-1 (antibody, V domains shown)
VH: QVTLKESGPGMLQPSKTLSLTCSFSGFSLSTSGMVVSWIRQPSGKSLEWLAAIDWDGDKYYNPSLKSRLTVSKDTSNTQVFLKISSVDIADTATYYCARTPYYGYKEAYYFDYWGQGVKVTVSS
VL: DIQMTQSPASLSASLEEIVTITCKASRAIDDYLSWYQQKPGKSPQLLIYDATSLADGVPSRFSGSRSGTQYSLKISRPQVDDSGIYYCLQSYSTPWTFGGGTKLDLKR
notes: as for B13
B15: F1232-37-2 F(ab')2 (other)
VH: VQLQQSGPELVRPGESVKISCKGSGYTFTDYAIHWVKLSHAKSLEWIGVISIYYDDTNYNQKFKGKATMTVDKSSSTAYLELARLTSEDSAIYYCARRRDSSGPYAMDYWGQGTSVTVSS
VL: DIVLTQSPASLAVSLGQRATISCRASESVDSYGNSFMHWYQQKPGQPPKLLIYRASNLESGIPARFSGSGSRTDFTLTINPVEADDVATYYCQQSNEDPYTFGGGTKLEIKRADAA
notes: F(ab')2 made from the mouse antibody with lysyl endopeptidase
B16: humanized F1232-37-2: Eu-HC with REI-KA (antibody, human IgG4, V domains shown)
VH: QVQLVQSGAEVKKPGSSVKVSCKASGGTFSDYAIHWVRQAPGQGLEWIGVISIYYDDTNYNQKFKGKATITADESTNTAYMELSSLRSEDTAIYYCARRRDSSGPYAMDYWGQGTLVTVSS
VL: DIQMTQSPSSLSASVGDRVTITCRASESVDSYGNSFMHWYQQKPGKAPKLLIYRASNLESGVPSRFSGSGSGTDFTFTISSLQPEDIATYYCQQSNEDPYTFGQGTKVEIKR
notes: human IgG4 heavy and kappa light constant regions
B17: humanized F1232-37-2: Eu-HC with Eu-KA (antibody, human IgG4, V domains shown)
VH: B16 VH
VL: B16 VL with S10T, I52M, S67I, D74E, F77L, E85D, I87F, I110V
notes: as for B16
B18: F1232-37-2 Fab (Fab, V domains shown)
VH: B15 VH
VL: B4 VL with W100Y
notes: Fab made from the mouse antibody with papain

These binders were tested against T1, human GPVI extracellular region-human Fc fusion protein (hGPVI-hFc) (human) (assay: SPR BIACORE 3000 as in Example 5).
T1 construct: Expressed in COS-1, purified on Protein A; also called GPVI-HHH-hFc; hGPVIHHH-hFc
T1 sequence (chain, as listed by the source limits assumed): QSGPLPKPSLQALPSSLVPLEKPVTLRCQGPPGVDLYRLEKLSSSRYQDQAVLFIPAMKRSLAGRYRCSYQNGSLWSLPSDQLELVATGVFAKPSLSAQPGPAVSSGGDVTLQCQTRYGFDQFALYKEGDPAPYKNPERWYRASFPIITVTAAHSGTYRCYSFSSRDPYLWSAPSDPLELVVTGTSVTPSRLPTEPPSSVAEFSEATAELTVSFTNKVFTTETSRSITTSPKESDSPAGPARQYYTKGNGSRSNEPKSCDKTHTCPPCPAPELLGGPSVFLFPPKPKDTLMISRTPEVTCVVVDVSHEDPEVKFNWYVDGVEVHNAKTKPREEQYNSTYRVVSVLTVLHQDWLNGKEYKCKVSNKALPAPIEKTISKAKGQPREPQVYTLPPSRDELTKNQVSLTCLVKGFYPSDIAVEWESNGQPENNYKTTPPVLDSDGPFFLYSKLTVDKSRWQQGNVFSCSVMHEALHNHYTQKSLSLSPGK
B1 was tested, and the “KD (Relative value)” value was 0.00103 relative to F1232-37-2 = 1.
B2 was tested, and the “KD (Relative value)” value was 0.00285 relative to F1232-37-2 = 1.
For B3, the “KD (Relative value)” value was 0.00293 relative to F1232-37-2 = 1.
With B4 the “KD (Relative value)” value was 0.884 relative to F1232-37-2 = 1.
In the case of B5, the “KD (Relative value)” value is reported as 0.00205 relative to F1232-37-2 = 1.
For B6, the “KD (Relative value)” value was 0.00821 relative to F1232-37-2 = 1.
For B7, the “KD (Relative value)” value was 0.347 relative to F1232-37-2 = 1.
For B8, the “KD (Relative value)” value was 1.43 relative to F1232-37-2 = 1.
For B9, the “KD (Relative value)” value was 0.122 relative to F1232-37-2 = 1.
In the case of B10, the “KD (Relative value)” value is reported as 1.59 relative to F1232-37-2 = 1.
For B11, the “KD (Relative value)” value was 0.00427 relative to F1232-37-2 = 1.
With B12 the “KD (Relative value)” value was 2.06 relative to F1232-37-2 = 1.
In the case of B13, the “KD (Relative value)” value is reported as 7.9 relative to F1232-37-2 = 1.
In the case of B14, the “KD (Relative value)” value is reported as 0.00298 relative to F1232-37-2 = 1.

The binders below were run against T1, human GPVI extracellular region-human … (assay: SPR BIACORE 3000, hGPVI-hFc on CM5 chip, 0-800 nM, bivalent analyte fit).
Description: (§1) Dissociation constant for F1232-37-2 (whole antibody) prepared in EXAMPLE 2, and F(ab′)2 and Fab prepared in 22-1 and 21-2 was measured with Protein Interaction Analyzer BIACORE® 3000 (BIACORE). That is, hGPVI-hFc prepared in EXAMPLE 1 was coupled to sensorchip CM5 (BIACORE) according to the manual. Then a series of dilution from 0 to 800 nM of each antibody was prepared with HBS-EP buffer (BIACORE) and analyzed with BIACORE® 3000. After completion of antibody binding, chip was regenerated with glycine buffer (pH 1.5) (BIACORE). Regarding the results of whole antibody and F(ab′)₂, evaluation software Bivalent analyte (BIACORE) was used for analysis; 1:1 Binding for Fab analysis. Then the dissociation constant was calculated. As a result, dissociation constant of F1232-37-2 F(ab′)2 and Fab was about 0.7 and 0.6, respectively, when that of whole antibody defined as one.
In the case of B15, the “dissociation constant relative to whole antibody” value is reported as ~0.7 relative to whole F1232-37-2 = 1.

What follows are binders tested against T1, human GPVI extracellular region-human … (assay: binding to antigen of co-expressed chains; antigen construct not named).
B16: binds.
B17: binds.

Each binder was assayed against T1, human GPVI extracellular region-human … (assay: SPR BIACORE 3000, hGPVI-hFc on CM5 chip, 0-800 nM, 1:1 binding fit).
Description: as §1
In the case of B18, the “dissociation constant relative to whole antibody” value is reported as ~0.6 relative to whole F1232-37-2 = 1.
